{"source": "patent US20190351049A1", "about": "(Regeneron, published 2019)", "binders": {"B1": {"name": "H1H15249P2 (antibody, V domains shown)", "VH": "QLQLQESGPGLVKPSETLSLTCTVSGGSISNNNYYWGWIRQPPGKGLDWIGSIYYSGNTYYNPSLKSRVTISVDTSKNQFSLKMSSVTATDTALYYCARQGADHNWVDPWGQGTLVTVSS", "VL": "not shown"}, "B2": {"name": "H1H15215P (antibody, V domains shown)", "VH": "EVQLVESGGGLVQPGGSLRLSCAASGFTFSTYGMSWVRQAPGKGLEWVSTIIGSGYNTYYSDSVKGRFTMSRDNSKSTLYLQMNSLRAEDTAVYYCTKEGPIIGTTNWGQGTLVTVSS", "VL": "not shown"}, "B3": {"name": "H1H15259P2 (antibody, V domains shown)", "VH": "QVQLVESGGGVVQPGRSLRLSCAASGFTFSNYGIHWVRQAPGKGLEWVAGIYYDGSNKYYGDSVKGRFTISRDNSKNTLYLQMNSLRAEDTAVYYCARDRGNNHYYHNNPYYYYHGLDVWGQGTTVTVSS", "VL": "not shown"}, "B4": {"name": "H1H15260P2 (antibody, V domains shown)", "VH": "QVQLQESGPGLVKPSETLSLTCSVSGGSITSSYWSWIRQPPGRGLEWIGYVYYYGTTKYNPSLKSRVTTSMDTSKNQFSLKLNSVTAADTAVYYCARLELLFDYWGQGTLVTVSS", "VL": "not shown"}, "B5": {"name": "H1H15264P2 (antibody, V domains shown)", "VH": "QLQLQESGPGLVKPSETLSLTCSVSGGSINNNNYYWGWIRQPPGRGLEWIGSFFYSGPTYYNPSLRSRVTISVDTSKNQFSLKLNSVTAADTAIYYCARQDGNYYPLFDYWGQGTLVTVSS", "VL": "not shown"}, "B6": {"name": "H1H15253P2 (antibody, V domains shown)", "VH": "EVQLVESGGGLVQPGGSLRLSCVVSGFTSRNYAMSWVRQAPGKGLEWVSAISGSGGSTYYADSVKGRFTISRDNPKNTLYLQMNSLRAEDTALYYCAEDPGTSFDYWGQGTLVTVSS", "VL": "not shown"}, "B7": {"name": "H1H15208P (antibody, V domains shown)", "VH": "EVQLVESGGDLVQPGGSLRLSCTASGFTFSNYEMNWVRQAPEKGLDWVSFISSSGGAIYYADSVKGRFTISRDNAKNSLYLQMNSLRAEDSAIYFCARSDSGGNSRYWGQGTLVTVSS", "VL": "DIQMTQSPSSVSASVGDRVTVTCRASQDISNWLVWYQQKPGKAPKFLIYAASSLQSGVPSRFSGSGSGTDFTLTISSLQPEDFATYYCQQANSFPPTFGGGTKVEIK"}}, "key": {"MERS-RBD-mFc": {"molecular_target": "MERS-RBD-mFc (MERS-CoV (isolate EMC/2012), UniProt K9N5Q8 367-606)", "test": "Octet BLI, MERS.mFc captured on the sensor, then mAb-1 applied"}, "[1]": {"molecular_target": "MERS-CoV spike protein (EMC/2012), wt (MERS-CoV (isolate EMC/2012), UniProt K9N5Q8 18-1353)", "test": "cell-based or functional assay"}}}
{"binder": "B1", "values": [{"measurement": "mAb-1 Binding (nm)", "setting": "MERS-RBD-mFc", "result": 0.4, "unit": "nm"}, {"measurement": "IC50 against MERSpp", "setting": "[1]", "result": 0.227, "unit": "nM"}, {"measurement": "IC50 against live virus (EMC2012)", "setting": "[1]", "result": 12, "unit": "nM"}]}
{"binder": "B2", "values": [{"measurement": "mAb-1 Binding (nm)", "setting": "MERS-RBD-mFc", "result": 0.56, "unit": "nm"}, {"measurement": "IC50 against MERSpp", "setting": "[1]", "result": 0.192, "unit": "nM"}, {"measurement": "IC50 against live virus (EMC2012)", "setting": "[1]", "result": 2.67, "unit": "nM"}]}
{"binder": "B3", "values": [{"measurement": "mAb-1 Binding (nm)", "setting": "MERS-RBD-mFc", "result": 0.42, "unit": "nm"}, {"measurement": "IC50 against MERSpp", "setting": "[1]", "result": 0.0764, "unit": "nM"}, {"measurement": "IC50 against live virus (EMC2012)", "setting": "[1]", "result": 1.63, "unit": "nM"}]}
{"binder": "B4", "values": [{"measurement": "mAb-1 Binding (nm)", "setting": "MERS-RBD-mFc", "result": 0.39, "unit": "nm"}, {"measurement": "IC50 against MERSpp", "setting": "[1]", "result": 0.0643, "unit": "nM"}, {"measurement": "IC50 against live virus (EMC2012)", "setting": "[1]", "result": 6.7, "unit": "nM"}]}
{"binder": "B5", "values": [{"measurement": "mAb-1 Binding (nm)", "setting": "MERS-RBD-mFc", "result": 0.41, "unit": "nm"}, {"measurement": "IC50 against MERSpp", "setting": "[1]", "result": 0.134, "unit": "nM"}, {"measurement": "IC50 against live virus (EMC2012)", "setting": "[1]", "result": 2.39, "unit": "nM"}]}
{"binder": "B6", "values": [{"measurement": "mAb-1 Binding (nm)", "setting": "MERS-RBD-mFc", "result": 0.38, "unit": "nm"}, {"measurement": "IC50 against MERSpp", "setting": "[1]", "result": 0.151, "unit": "nM"}, {"measurement": "IC50 against live virus (EMC2012)", "setting": "[1]", "result": 2.42, "unit": "nM"}]}
{"binder": "B7", "values": [{"measurement": "mAb-1 Binding (nm)", "setting": "MERS-RBD-mFc", "result": 0.46, "unit": "nm"}, {"measurement": "IC50 against MERSpp", "setting": "[1]", "result": 0.0827, "unit": "nM"}, {"measurement": "IC50 against live virus (EMC2012)", "setting": "[1]", "result": 2.41, "unit": "nM"}]}
